For the assay, the target named is ectodomain of SARS-CoV-2 S protein (a.a. 1-1208 (SARS-CoV-2) (UniProt P0DTC2)). Nature of the assay: SPR. Background: Surface plasmon resonance follows binding to a sensor surface in real time, without labels.
Consider CR3022 Fab, for which the Kd (in general, the constant that tells how readily two partners part at equilibrium) stood at 45.4 nM.

As to CR3022 IgG (antibody), the Kd came out at 0.21 nM.

The substance CR3022 scFv VHVL showed a Kd of 20.1 nM.

Substance CR3022 scFv VLVH gave a Kd of 27.8 nM.
